Assay results published in paper PMC6739210.

Key:
[1] = molecular target: Mortalin/GRP-75/mt-hsp70 (human (endogenous in MCF-7, MDA-MB-231 and K562)) (UniProt P38646)
[2] = molecular target: Mortalin/GRP-75/mt-hsp70 (human (endogenous in MCF-7, MDA-MB-231 and K562)) (UniProt P38646); remark: listed apart in the source

Chain of UniProt P38646 (P38646 47-679): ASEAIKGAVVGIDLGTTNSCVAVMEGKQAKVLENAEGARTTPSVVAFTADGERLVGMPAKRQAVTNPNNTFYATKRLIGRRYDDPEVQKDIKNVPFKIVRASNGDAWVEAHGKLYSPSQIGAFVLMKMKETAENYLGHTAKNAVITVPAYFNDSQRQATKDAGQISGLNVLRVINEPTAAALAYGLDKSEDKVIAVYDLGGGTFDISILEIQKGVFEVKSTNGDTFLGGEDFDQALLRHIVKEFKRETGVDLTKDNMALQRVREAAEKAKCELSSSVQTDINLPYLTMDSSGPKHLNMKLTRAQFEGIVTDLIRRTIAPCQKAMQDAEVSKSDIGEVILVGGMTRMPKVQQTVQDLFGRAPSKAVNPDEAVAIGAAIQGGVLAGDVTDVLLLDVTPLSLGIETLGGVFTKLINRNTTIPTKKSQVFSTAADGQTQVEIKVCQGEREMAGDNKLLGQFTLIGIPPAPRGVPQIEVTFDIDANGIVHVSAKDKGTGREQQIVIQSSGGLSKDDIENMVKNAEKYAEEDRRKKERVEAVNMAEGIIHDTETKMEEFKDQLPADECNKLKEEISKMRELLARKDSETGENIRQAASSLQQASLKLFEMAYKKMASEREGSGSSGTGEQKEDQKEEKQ

Question: With SMRwt-CPP peptide as the substance, how does the complement-mediated cytotoxicity (trypan blue), percent cell death of K562 cells treated with 1120 nM peptide, anti-CXCR4 antibody, minus or plus normal human serum [1] read?
Answer: The complement-mediated cytotoxicity (trypan blue), percent cell death of K562 cells treated with 1120 nM peptide, anti-CXCR4 antibody, minus or plus normal human serum was 23%.

Question: What about the complement-mediated cytotoxicity (trypan blue), percent cell death of MCF-7 cells treated with 300 nM peptide, anti-CXCR4 antibody, minus or plus normal human serum [1] of the same substance?
Answer: The complement-mediated cytotoxicity (trypan blue), percent cell death of MCF-7 cells treated with 300 nM peptide, anti-CXCR4 antibody, minus or plus normal human serum was 29%.

Question: What about the complement-mediated cytotoxicity (trypan blue), percent cell death of MDA-MB-231 cells treated with 540 nM peptide, anti-CXCR4 antibody, minus or plus normal human serum [1] of the same substance?
Answer: Its complement-mediated cytotoxicity (trypan blue), percent cell death of MDA-MB-231 cells treated with 540 nM peptide, anti-CXCR4 antibody, minus or plus normal human serum is 9%.

Question: What about the complement C9 level in extracellular vesicles of K562 cells after peptide and NHS, Western blot, compared to the NHS-treated controls [2] of the same substance?
Answer: The complement C9 level in extracellular vesicles of K562 cells after peptide and NHS, Western blot, compared to the NHS-treated controls was 24.3%.

Question: What about the complement C9 level in extracellular vesicles of MCF-7 cells after peptide and NHS, Western blot, compared to the NHS-treated controls [2] of the same substance?
Answer: Its complement C9 level in extracellular vesicles of MCF-7 cells after peptide and NHS, Western blot, compared to the NHS-treated controls is 37.5%.

Question: What about the complement C9 level in extracellular vesicles of MDA-MB-231 cells after peptide and NHS, Western blot, compared to the NHS-treated controls [2] of the same substance?
Answer: The complement C9 level in extracellular vesicles of MDA-MB-231 cells after peptide and NHS, Western blot, compared to the NHS-treated controls was 56.3%.

Question: And the mortalin level in extracellular vesicles of K562 cells after peptide and NHS, Western blot, compared to the NHS-treated controls [2]?
Answer: The mortalin level in extracellular vesicles of K562 cells after peptide and NHS, Western blot, compared to the NHS-treated controls was 34.4%.

Question: And the mortalin level in extracellular vesicles of MCF-7 cells after peptide and NHS, Western blot, compared to the NHS-treated controls [2]?
Answer: The mortalin level in extracellular vesicles of MCF-7 cells after peptide and NHS, Western blot, compared to the NHS-treated controls was 48.4%.

Question: What about the mortalin level in extracellular vesicles of MDA-MB-231 cells after peptide and NHS, Western blot, compared to the NHS-treated controls [2] of the same substance?
Answer: The mortalin level in extracellular vesicles of MDA-MB-231 cells after peptide and NHS, Western blot, compared to the NHS-treated controls was 27.5%.
